These sequences were tested on A431 cells (assay: Evaluation of intracellular transfer ability of peptide (cytotoxicity test by PSIF; MTT assay)). Conditions: 5 μL culture supernatant containing fusion body of peptide and PSIF, cycloheximide 10 μg/mL, 24 hours, viability of TAT peptide (Tat 48-60)-PSIF group taken as 100%.
Assay type: cell-based, human
Procedure: Subsequently, using a fusion body of the peptide and PSIF (protein synthesis inhibitory factor) obtained by recombining each library gene in a PSIF-expressing vector, the intracellular transfer activity of the peptide was evaluated using the cytotoxicity by PSIF as an indicator. […] The screening was performed using a supernatant of the culture of Escherichia coli producing the fusion body of the peptide and PSIF. As a result, it can be confirmed that the clone having the ability to penetrate into the cell is selectively enriched as the panning is repeated. It was successful to yield many clones having a higher introduction efficiency than TAT peptide currently described to be the most excellent in introduction efficiency.
The plasmids collected from the library (input) made and the libraries after the 2nd, 3rd and 4th panning were treated with NcoI (Toyobo Co., Ltd.) and NotI. A plasmid expressing the fusion body of the peptide and PSIF was constructed by incorporating the treated plasmid into PSIF expression vector pY7 (PSIF expression codons had been incorporated into pCantab5e) previously treated with NcoI and NotI using a ligation kit (Takara Shuzo Co., Ltd.). […]; A04646) or Pseudomonas microbial cell exotoxin (GenBank; K01397) (FIG. 6) was utilized.
The plasmid expressing the fusion body of the peptide and PSIF was introduced into TG1 by electroporation, and resulting colonies were randomly picked up into a 96-well plate (NUNC™) and cultured overnight. To a plate in which 100 μL of the 2YT medium containing 50 μg/mL of ampicillin and 2% glucose was newly added, 10 μL of the culture medium cultured overnight was added and cultured until OD600=0.4 to 0.5. The culture was centrifuged at 3,000 rpm for 20 minutes, the supernatant was removed, and 200 μL of the 2YT medium containing 1 mM IPTG (Sigma Aldrich Inc.) and 50 μg/mL of ampicillin was added to the plate, which was then cultured at 37° C. for 12 hours. The culture was centrifuged again at 3,000 rpm for 20 minutes, and the resulting supernatant was subjected to the following screening.
A431 cells diluted at 1.0×10^4 cells/well with Opti-MEM (Invitrogen™ life technologies) were seeded in a 96-well plate, and cycloheximide (Wako Pure Chemical Industries Ltd.) at a final concentration of 10 μg/mL was added thereto. Then, 5 μL of the culture supernatant made according to the above method was added, and the cells were cultured at 37° C. under the saturated vapor pressure and 5% carbon dioxide gas phase for 24 hours. Subsequently, 10 μL/well of 5 mg/mL of MTT (Wako Pure Chemical Industries Ltd.) solution was added, and further cultured at 37° C. for 4 hours. Then, 100 μL/well of 20% SDS (Wako Pure Chemical Industries Ltd., Osaka, Japan)/0.01 N HCl was added and the plate was left stand in a dark place for 4 hours. The intracellular transfer ability of the peptide was evaluated using the cytotoxicity by PSIF introduced into the cells by the peptide as the indicator by measuring absorbance using a microplate reader (Test wave length: 595 nm/Reference wave length: 655 nm). Viability was calculated by making the viability in the group treated with the culture supernatant containing the fusion body of the TAT peptide (Tat 48-60) and PSIF 100%.
With “GLFNWLQLRPPSW [SEQ ID NO 2, cell permeable peptide, tested as fusion body with PSIF]” the Viability was “about 80%”. With “GSNFFYQHRLPFS [SEQ ID NO 1, cell permeable peptide, tested as fusion body with PSIF]” the Viability was “about 45%”. In the case of “GIASNGQLPTPKT [SEQ ID NO 5, cell permeable peptide, tested as fusion body with PSIF]”, the Viability is reported as “about 35%”. For “QDGGTWHLVAYCAKSHRY [SEQ ID NO 9, cell permeable peptide, tested as fusion body with PSIF]”, the Viability was “about 45%”. “GRKKRRQRRRPPQ [SEQ ID NO 17, TAT peptide (Tat 48-60) derived from HIV Tat protein, reference compound]” gave a Viability of 100%. In the case of “STHLQYHVNYTSRTVVSM [SEQ ID NO 8, cell permeable peptide, tested as fusion body with PSIF]”, the Viability is reported as “about 60%”. With “YSSAYEWFNRYKQPYYEL [SEQ ID NO 14, cell permeable peptide, tested as fusion body with PSIF]” the Viability was “about 65%”. “MSDPNMNPGTLGSSHILW [SEQ ID NO 10, cell permeable peptide, tested as fusion body with PSIF]” was tested, and the Viability was “about 30%”. In the case of “SSGANYFFNAIYDFLSNF [SEQ ID NO 15, cell permeable peptide, tested as fusion body with PSIF]”, the Viability is reported as “about 35%”. For “SMTTMEFGHSMITPYKID [SEQ ID NO 7, cell permeable peptide, tested as fusion body with PSIF]”, the Viability was “about 45%”. “STAPGSLQEDILDSVPA [SEQ ID NO 12, cell permeable peptide, tested as fusion body with PSIF]” was tested, and the Viability was “about 85%”. For “SPTRPTHQGLLPVSNKYT [SEQ ID NO 13, cell permeable peptide, tested as fusion body with PSIF]”, the Viability was “about 77%”. With “SPGNQSTGVIGTPSFSNH [SEQ ID NO 11, cell permeable peptide, tested as fusion body with PSIF]” the Viability was “about 45%”. With “GTSRANSYDNLKSETLTQ [SEQ ID NO 16, cell permeable peptide, tested as fusion body with PSIF]” the Viability was “about 15%”. With “GILLRNQVLPPQI [SEQ ID NO 3, cell permeable peptide, tested as fusion body with PSIF]” the Viability was “about 65%”. In the case of “RRRRNRTRRNRRRVR [SEQ ID NO 4, cell permeable peptide, tested as fusion body with PSIF]”, the Viability is reported as “about 93%”. For “SGEHTNGPSKTSVRWVWD [SEQ ID NO 6, cell permeable peptide, tested as fusion body with PSIF]”, the Viability was “about 35%”.

From US7989588B2, “Cell permeable peptide” (Osaka University, priority 2005, dated 2011)
